The values below come from patent publication US20180326084A1.

The target of experiment [1] is human AXL (full length) (human) (UniProt P30530). Nature of the experiment: flow cytometry, A431 cells, no Gas6.
The target is the same in experiment [2]. The experiment is described as follows: flow cytometry, A431 cells pre-incubated with 10 µg/mL Gas6 (competitor).
Experiment [3] shares this target. The experiment is described as follows: flow cytometry, A431 cells pre-incubated with 10 µg/mL Gas6 (competitor); value less accurate due to low binding.

B1: IgG1-YW327.6S2 (antibody, from another filing, V domains shown)
VH: EVQLVESGGGLVQPGGSLRLSCAASGFSLSGSWIHWVRQAPGKGLEWVGWINPYRGYAYYADSVKGRFTISADTSKNTAYLQMNSLRAEDTAVYYCAREYSGWGGSSVGYAMDYWGQGTLVTVSS
VL: DIQMTQSPSSLSASVGDRVTITCRASQDVSTAVAWYQQKPGKAPKLLIYSASFLYSGVPSRFSGSGSGTDFTLTISSLQPEDFATYYCQQSYTTPPTFGQGTKVEIK
In the case of B1, the EC50 in experiment [1] was determined as 0.09 µg/mL. Besides, in experiment [2], the fold change of EC50 after Gas6 pre-incubation against no Gas6 came to 21 fold, the maximal binding in presence of Gas6 (% of binding in absence of Gas6) is 41% and the maximal binding in presence of Gas6 (% of binding without Gas6) was determined as 19%. In experiment [3], the EC50 came to 1.9 µg/mL.
